B1: IMPA1 (parent)
chain: FIGEESVAAGEKSILTDNPTWIID

Variants of: B1
Assay: protein stability index of a GFP-peptide fusion (GPS, HEK-293T) (PSI 1-6); higher = more stable
Details: c terminus: a fixed tail appended
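Note: lentivirally expressed fusions sorted by FACS into six bins by GFP to DsRed ratio, PSI derived from sequencing read proportions per bin multiplied by bin number.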

Row | Variant | protein stability index
1 | FIGEEIVAAGEKSILTDNPTWIID | 1.73
2 | FIGEEGVAAGEKSILTDNPTWIID | 2.42
3 | FIGEENVAAGEKSILTDNPTWIID | 2.25
4 | FIGEEVVAAGEKSILTDNPTWIID | 1.7
5 | FIGEESVAAGEKIILTDNPTWIID | 1.99
6 | FIGEESVAAGEKAILTDNPTWIID | 2.06
7 | FIGEESVAAGEKCILTDNPTWIID | 2.27
8 | FIGEESVAAGEKGILTDNPTWIID | 1.67
9 | FIGEESVAAGEKDILTDNPTWIID | 2.44
10 | FIGEESVAAGEKKILTDNPTWIID | 2.16
11 | FIGEESVAAGEKQILTDNPTWIID | 1.99
12 | FIGEESVAAGEKLILTDNPTWIID | 1.95
13 | FIGEESVAAGEKMILTDNPTWIID | 1.73
14 | FIGEESVAAGEKEILTDNPTWIID | 2.32
15 | FIGEESVAAGEKPILTDNPTWIID | 2.02
16 | FIGEESVAAGEKNILTDNPTWIID | 1.98
17 | FIGEESVAAGEKFILTDNPTWIID | 1.97
18 | FIGEESVAAGEKHILTDNPTWIID | 1.96
19 | FIGEESPAAGEKSILTDNPTWIID | 2.19
20 | FIGEESYAAGEKSILTDNPTWIID | 2.01
21 | FIGEESMAAGEKSILTDNPTWIID | 1.94
22 | FIGEESSAAGEKSILTDNPTWIID | 2.17
23 | FIGEESQAAGEKSILTDNPTWIID | 2.19
24 | FIGEESAAAGEKSILTDNPTWIID | 2.46

Row | Variant | protein stability index
25 | FIGEESEAAGEKSILTDNPTWIID | 3.03
26 | FIGEESDAAGEKSILTDNPTWIID | 2.71
27 | FIGEESTAAGEKSILTDNPTWIID | 2.28
28 | FIGEESCAAGEKSILTDNPTWIID | 2
29 | FIGEESNAAGEKSILTDNPTWIID | 2.4
30 | FIGEESGAAGEKSILTDNPTWIID | 2.15
31 | FIGEESIAAGEKSILTDNPTWIID | 1.92
32 | FIGEESKAAGEKSILTDNPTWIID | 2.53
33 | FIGEESFAAGEKSILTDNPTWIID | 2.05
34 | FIGEESLAAGEKSILTDNPTWIID | 2.25
35 | FIGEESRAAGEKSILTDNPTWIID | 1.85
36 | FIGEESWAAGEKSILTDNPTWIID | 1.94
37 | FIGEESHAAGEKSILTDNPTWIID | 2.06
38 | FIGEESVAAGELSILTDNPTWIID | 2.25
39 | FIGEESVAAGENSILTDNPTWIID | 1.89
40 | FIGEESVAAGESSILTDNPTWIID | 2.12
41 | FIGEESVAAGEQSILTDNPTWIID | 1.97
42 | FIGEESVAAGEPSILTDNPTWIID | 2.45
43 | FIGEESVAAGERSILTDNPTWIID | 2.57
44 | FIGEESVAAGEASILTDNPTWIID | 2.25
45 | FIGEESVAAGEDSILTDNPTWIID | 2.27
46 | FIGEESVAAGEWSILTDNPTWIID | 1.97
47 | FIGEESVAAGECSILTDNPTWIID | 1.93
48 | FIGEESVAAGEFSILTDNPTWIID | 1.56

Row | Variant | protein stability index
49 | FIGEESVAAGEISILTDNPTWIID | 1.61
50 | FIGEESVAAGEYSILTDNPTWIID | 2.35
51 | FIGEESVAAGEVSILTDNPTWIID | 2.11
52 | FIGEESVAAGEMSILTDNPTWIID | 2.29
53 | FIGEESVAAGEHSILTDNPTWIID | 2.06
54 | FIGEESVAAGETSILTDNPTWIID | 2.32
55 | FIGEESVAAGEGSILTDNPTWIID | 1.91
56 | FIGEESVAAGEESILTDNPTWIID | 2.21
57 | FIGEESVWAGEKSILTDNPTWIID | 1.74
58 | FIGEESVYAGEKSILTDNPTWIID | 2.39
59 | FIGEESVFAGEKSILTDNPTWIID | 1.84
60 | FIGEESVLAGEKSILTDNPTWIID | 2.08
61 | FIGEESVPAGEKSILTDNPTWIID | 2.54
62 | FIGEESVQAGEKSILTDNPTWIID | 2.29
63 | FIGEESVTAGEKSILTDNPTWIID | 2.13
64 | FIGEESVGAGEKSILTDNPTWIID | 2.46
65 | FIGEESVSAGEKSILTDNPTWIID | 2.3
66 | FIGEESVVAGEKSILTDNPTWIID | 2.52
67 | FIGEESVDAGEKSILTDNPTWIID | 2.72
68 | FIGEESVCAGEKSILTDNPTWIID | 1.55
69 | FIGEESVEAGEKSILTDNPTWIID | 2.79
70 | FIGEESVKAGEKSILTDNPTWIID | 2.35
71 | FIGEESVIAGEKSILTDNPTWIID | 1.58
72 | FIGEESVMAGEKSILTDNPTWIID | 2.05

Row | Variant | protein stability index
73 | FIGEESVRAGEKSILTDNPTWIID | 1.62
74 | FIGEESVHAGEKSILTDNPTWIID | 1.75
75 | FIGEESVNAGEKSILTDNPTWIID | 2.23
76 | FIGEHSVAAGEKSILTDNPTWIID | 1.93
77 | FIGETSVAAGEKSILTDNPTWIID | 2.38
78 | FIGEDSVAAGEKSILTDNPTWIID | 1.89
79 | FIGEFSVAAGEKSILTDNPTWIID | 3.35
80 | FIGEYSVAAGEKSILTDNPTWIID | 2.52
81 | FIGEPSVAAGEKSILTDNPTWIID | 2.35
82 | FIGEQSVAAGEKSILTDNPTWIID | 2.38
83 | FIGESSVAAGEKSILTDNPTWIID | 1.92
84 | FIGENSVAAGEKSILTDNPTWIID | 1.53
85 | FIGECSVAAGEKSILTDNPTWIID | 2.7
86 | FIGEGSVAAGEKSILTDNPTWIID | 2.79
87 | FIGEISVAAGEKSILTDNPTWIID | 3.46
88 | FIGERSVAAGEKSILTDNPTWIID | 2
89 | FIGEWSVAAGEKSILTDNPTWIID | 1.29
90 | FIGEKSVAAGEKSILTDNPTWIID | 1.88
91 | FIGELSVAAGEKSILTDNPTWIID | 1.71
92 | FIGEMSVAAGEKSILTDNPTWIID | 2.31
93 | FIGEVSVAAGEKSILTDNPTWIID | 3.68
94 | FIGEASVAAGEKSILTDNPTWIID | 2.05
